Reference: US20260029420A1, “ANTI-CB2 ANTIBODIES AND THEIR USE IN A FLOW CYTOMETRY ASSAY TO MEASURE CELL SURFACE CB2 EXPRESSION” (Hoffmann-La Roche Inc., priority 2022, published 2026)

Legend:
pANITA3.1 hCB2 (JB175) = target: T1, pANITA3.1 hCB2 (JB175) (Homo sapiens, UniProt P34972); assay: Western blot of cell lysates; format: binding; parameters: key to Western Blot signal intensity: “−” no signal; “+”-“+++++” signal intensity; “+”-“+++++” signal intensity; “+”-“+++++” signal intensity; “+”-“+++++” signal intensity; “+”-“+++++” signal intensity
T1 construct: expressed in transfected cells; host or cells: HEK293
T1 sequence (P34972 with tags, fused parts or gaps): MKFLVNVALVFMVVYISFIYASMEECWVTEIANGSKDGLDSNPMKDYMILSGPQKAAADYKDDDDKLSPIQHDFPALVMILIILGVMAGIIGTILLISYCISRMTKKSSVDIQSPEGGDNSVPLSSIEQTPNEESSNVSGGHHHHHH
Protocol: (§1) The positive clones (Table 1) were further characterized by immunofluorescence (IF; Table 2), Western Blot (Table 3, 1) and Immune precipitation (Table 4, 2) on full length hCB2, hCB1, mCB2 stable-transfected CHO-cell lines in addition to the 2 pANITA constructs.
(§2) For Western blot analysis, cells were collected using enzyme free dissociation buffer (Cell dissociation buffer enzyme-free Hanks'-based, Gibco), and washed two times with PBS. To prepare cell lysate, 10^6 cells were lysed with 0.1 ml of lysis buffer (1% NP40, 10% glycerol, 2 mM EDTA, 137 mM NaCl, 20 mM TrisHCl, pH8, Protease Inhibitors) for 10 min on ice. The lysate was cleared by centrifugation at 20′000 g for 5 min. For SDS-PAGE cell lysate was resolved on precast 4-12% gradient gels (NuPAGE® Novex 4-12% Bis-Tris Gel, Invitrogen) with MES running buffer according to the manufacturer's directions. The separation of proteins was visualized by Colloidal Blue staining. The proteins were electrophoretically transferred to nitrocellulose membrane using a dry-blotting system (iBlot, Invitrogen). After blocking the membrane for 16 h in blocking buffer (5% Milk in PBS) at 4° C., specific proteins were detected with appropriate dilutions of mAbs in blocking buffer for 1 h at approximately 20° C. The membrane was then washed four times for 5 minutes in blocking buffer and incubated with horseradish peroxidase conjugated anti-mouse IgG mAb (GAM/IgG (g-chain)/HRP, Sigma, A9917) diluted 1:10'000 in blocking buffer at approximately 20° C. for 1 h. After washing again, blots were developed using ECL Western blotting detection reagents (ECL Western Blotting Substrate, Pierce) to visualize bands.
(§3) Expression of recombinant proteins in pANITA3.1 transfected cells was confirmed by Western blot analysis using anti-His tag antibodies. Cells expressing rat Glucose-dependent insulinotropic polypeptide receptor (GIPR), also a G-protein coupled receptor, were used as a negative control.

pANITA3.1 mCB2 (JB176) = target: T2, pANITA3.1 mCB2 (JB176) (Mus musculus, UniProt P47936); assay: Western blot of cell lysates; format: binding; parameters: key to Western Blot signal intensity: “−” no signal; “+”-“+++++” signal intensity; “+”-“+++++” signal intensity; “+”-“+++++” signal intensity; “+”-“+++++” signal intensity; “+”-“+++++” signal intensity
T2 construct: expressed in transfected cells; host or cells: HEK293
T2 sequence (P47936 with tags, fused parts or gaps): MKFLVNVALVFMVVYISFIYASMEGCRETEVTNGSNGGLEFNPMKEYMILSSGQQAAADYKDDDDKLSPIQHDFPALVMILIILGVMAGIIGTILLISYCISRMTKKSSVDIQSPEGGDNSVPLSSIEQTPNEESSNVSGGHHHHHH
Protocol: as §1, §2, §3

CHODukx CRE hCB1 Cl.20 = target: T3, CHODukx CRE hCB1 Cl.20 (Homo sapiens, UniProt P21554); assay: Western blot of cell lysates; format: binding; parameters: key to Western Blot signal intensity: “−” no signal; “+”-“+++++” signal intensity; “+”-“+++++” signal intensity; “+”-“+++++” signal intensity; “+”-“+++++” signal intensity; “+”-“+++++” signal intensity
T3 construct: expressed in transfected cells
T3 sequence (P21554 whole entry): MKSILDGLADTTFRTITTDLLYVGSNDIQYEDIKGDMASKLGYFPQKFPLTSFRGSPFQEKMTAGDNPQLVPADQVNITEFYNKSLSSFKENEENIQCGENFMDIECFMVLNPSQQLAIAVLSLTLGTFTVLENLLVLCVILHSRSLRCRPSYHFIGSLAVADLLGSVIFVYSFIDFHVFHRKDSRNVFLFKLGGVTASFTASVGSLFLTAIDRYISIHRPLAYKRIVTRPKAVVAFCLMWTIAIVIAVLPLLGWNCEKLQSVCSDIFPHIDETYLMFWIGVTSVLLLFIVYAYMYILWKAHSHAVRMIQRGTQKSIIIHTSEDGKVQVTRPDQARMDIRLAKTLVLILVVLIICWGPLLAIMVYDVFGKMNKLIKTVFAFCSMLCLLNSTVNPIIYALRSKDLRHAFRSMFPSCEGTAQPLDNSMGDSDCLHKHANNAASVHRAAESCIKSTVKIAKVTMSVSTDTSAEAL
Protocol: as §1
as §2, with “The membrane was then washed four times for 5 minutes in blocking buffer and incubated with horseradish peroxidase conjugated anti-mouse IgG mAb (GAM/IgG (g-chain)/HRP, Sigma, A9917) diluted 1:10'000 in blocking buffer at approximately 20° C. for 1 h. After washing again, blots were developed using ECL Western blotting detection reagents (ECL Western Blotting Substrate, Pierce) to visualize bands.” left out

[1] = tested on: pANITA3.1 ratGIPR (DB388); assay: Immunoprecipitation from whole cell lysates; format: binding, rat; parameters: key to Immunoprecipitation signal intensity: “−” no signal; “+”-“+++++” signal intensity; “+”-“+++++” signal intensity; “+”-“+++++” signal intensity; “+”-“+++++” signal intensity; “+”-“+++++” signal intensity
Protocol: as §1
For immunoprecipitation (IP), whole cell lysates were incubated with the respective antibodies. IP was performed according to established protocols and subsequent western blot as described herein above.

CHO K1 h CB2 cell line = target: T4, CHO K1 h CB2 cell line (Homo sapiens, UniProt P34972); assay: Flow cytometry with increasing antibody levels on CHO K1 cells; format: binding; details: 0.1, 1 or 10 μg/ml antibody; CHO K1 hCB2
T4 construct: expressed in transfected cells; host or cells: CHO K1
T4 sequence (P34972 whole entry): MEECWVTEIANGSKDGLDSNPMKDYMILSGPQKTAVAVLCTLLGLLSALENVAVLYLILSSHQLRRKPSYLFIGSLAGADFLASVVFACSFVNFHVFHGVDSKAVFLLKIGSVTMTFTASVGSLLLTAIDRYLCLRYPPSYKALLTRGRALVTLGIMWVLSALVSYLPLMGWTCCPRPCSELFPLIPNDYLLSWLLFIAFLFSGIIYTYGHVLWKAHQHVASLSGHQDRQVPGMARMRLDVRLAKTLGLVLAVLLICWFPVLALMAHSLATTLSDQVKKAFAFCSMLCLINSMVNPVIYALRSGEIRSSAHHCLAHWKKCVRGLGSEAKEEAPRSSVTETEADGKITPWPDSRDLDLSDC
Description: (§4) FIG. 3: Analysis of the specificity of the anti hCB2 antibody 1/622 for hCB2. Flow cytometric analysis with increasing concentrations of hCB2 antibody 1/622 in CHO cells transfected with hCB2 (light brick) and hCB1 (dark brick). Untransfected CHO cells (black) serve as a negative control. For detection an F(ab)2 goat-anti Mouse IgG3 PE antibody was used.
(§5) Further evidence for the specificity of the anti-human CB2 antibody 1/622 was generated by flow cytometry experiments using increasing levels of the antibody on untransfected, hCB1 or hCB2 transfected CHO K1.
(§6) The cells were washed 1× with 1× DPBS without CaCl2 and MgCl2 (Gibco, #14190-094). Accutase (Sigma, #A6964) was added and the cell were placed back in the incubator. Once the cells had detached, they were collected in a Falcon tube containing DMEM high glucose+GlutaMAX (Gibco, #31966-021) and 10% heat inactivated FBS (Gibco, #16140-071). Cells were centrifuged for 5 minutes at 250×g and 4° C. and the cell pellet was resuspended in cell staining buffer (BioLegend, #420201) and put them on ice until further usage. The cells were incubated with 0.1, 1 or 10 μg/ml hCB2-1/622 antibody and incubated for 30 minutes at 4° C. After the incubation, the tubes were centrifuged for 5 minutes with 250×g and 4° C. The supernatant was removed completely, cells were washed two times with cold cell staining buffer and supernatant removed completely after the centrifugation. Human FcR Blocking Reagent (Miltenyi Biotech, Cat #130-059-901) was diluted according to the package insert instructions with cold cell staining buffer. To each sample 50 μl was added, mixed and incubated for 10 minutes at 4° C. The secondary antibody Goat F(ab′)2 Anti-Mouse IgG3 PE (Southern Biotech, Cat #1102-09) was diluted 1:25 in cold cell staining buffer. To each sample 50 μl was added, mixed and incubated for 30 minutes at 4° C. in the dark. After the incubation cells were washed 2× with cold cell staining buffer and supernatant removed completely after centrifugation. […]

CHO K1 hCB1R = target: T5, CHO K1 hCB1R (Homo sapiens, UniProt P21554); assay: as above; format: binding; details: 0.1, 1 or 10 μg/ml antibody
T5 construct: expressed in transfected cells; host or cells: CHO K1
T5 sequence (P21554 whole entry): as the sequence (P21554 whole entry) above
Description: as §4, §5, §6

[2] = tested on: untransfected CHO K1 controls; assay: as above; format: binding; details: 0.1, 1 or 10 μg/ml antibody
Description: as §4, §5, §6

B1: hCB2-1/622: murine IgG3 monoclonal anti-human CB2 antibody, VH SEQ ID NO: 1, VL SEQ ID NO: 2, HC SEQ ID NO: 3, LC SEQ ID NO: 4 (antibody)
heavy: EVQLQQSGPELVKPGASVKISCKTSGYTFTEYTMHWVRQSHGKSLEWIGGIDRYNGDTYYNQKFKDKATLTVDRSSSTAYMELRSLTSEDSAVYFCARNGAMDYWGQGISVTVSSATTTAPSVYPLVPGCSDTSGSSVTLGCLVKGYFPEPVTVKWNYGALSSGVRTVSSVLQSGFYSLSSLVTVPSSTWPSQTVICNVAHPASKTELIKRIEPRIPKPSTPPGSSCPPGNILGGPSVFIFPPKPKDALMISLTPKVTCVVVDVSEDDPDVHVSWFVDNKEVHTAWTQPREAQYNSTFRVVSALPIQHQDWMRGKEFKCKVNNKALPAPIERTISKPKGRAQTPQVYTIPPPREQMSKKKVSLTCLVTNFFSEAISVEWERNGELEQDYKNTPPILDSDGTYFLYSKLTVDTDSWLQGEIFTCSVVHEALHNHHTQKNLSRSPGK
light: DVVMTQTPLSLPVSLGDQASISCRSSQSLVHSNGNTYLHWFLQKPGQSPKLLIYKVSIRFSGVPDRFSGSGSGTDFTLKISRVEAEDLGVYFCSQSTHVPPLTFGAGTKLELKRADAAPTVSIFPPSSEQLTSGGASVVCFLNNFYPKDINVKWKIDGSERQNGVLNSWTDQDSKDSTYSMSSTLTLTKDEYERHNSYTCEATHKTSTSPIVKSFNRNEC
pANITA3.1 hCB2 (JB175); hCB2
  Western blot detection: distinct band
pANITA3.1 hCB2 (JB175); pANITA3.1 hCB2 (JB175) lysate
  Western Blot signal intensity: +++
pANITA3.1 mCB2 (JB176); mCB2
  Western blot detection: no mCB2, hCB1 or rat GIPR was detected
pANITA3.1 mCB2 (JB176); pANITA3.1 mCB2 (JB176) lysate
  Western Blot signal intensity: −
CHODukx CRE hCB1 Cl.20; CHODukx CRE hCB1 Cl.20 lysate
  Western Blot signal intensity: −
CHODukx CRE hCB1 Cl.20; hCB1
  Western blot detection: no mCB2, hCB1 or rat GIPR was detected
[1]; pANITA3.1 ratGIPR (DB388) lysate
  Immunoprecipitation signal intensity: −
[1]; rat GIPR
  immunoprecipitation cross reactivity: no cross reactivity
CHO K1 h CB2 cell line
  median fluorescence intensity (MFI) signal: dose related increase
CHO K1 hCB1R
  median fluorescence intensity (MFI) signal: remained at background levels
[2]
  median fluorescence intensity (MFI) signal: remained at background levels
